Here are results for one molecule from article PMC9832833, “Mitogen-activated protein kinase 14-mediated phosphorylation of MaMYB4 negatively regulates banana fruit ripening”.

One data set deals with T1, MBP-MaMPK14 (Musa acuminata (banana), UniProt A0A804IKS6 1-366).
T1 sequence: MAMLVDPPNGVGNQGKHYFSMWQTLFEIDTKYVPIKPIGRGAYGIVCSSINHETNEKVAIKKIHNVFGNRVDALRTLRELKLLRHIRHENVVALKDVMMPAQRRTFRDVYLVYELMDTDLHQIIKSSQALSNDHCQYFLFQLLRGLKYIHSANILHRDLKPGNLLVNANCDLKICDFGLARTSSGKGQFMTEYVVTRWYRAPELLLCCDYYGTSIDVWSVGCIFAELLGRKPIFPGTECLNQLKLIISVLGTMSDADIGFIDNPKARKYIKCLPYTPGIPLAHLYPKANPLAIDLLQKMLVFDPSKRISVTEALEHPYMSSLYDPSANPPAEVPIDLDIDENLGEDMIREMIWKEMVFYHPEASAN
Put plainly: EMSA; MBP-MaMPK14 alone; EMSA buffer not stated (kit per cited Fan et al.); kinase preincubation in 20 mM Tris-HCl, 20 mM MgCl2, 100 mM NaCl, 10 mM ATP, 2 mM DTT, 0.5 h at 30 C; pH not. The settings on record: protein: recombinant; tags: MBP (N-term, pMAL-c2X); label: biotin; blunt.

For another data set, the target named is GST-MaMYB4 (Musa acuminata (banana), UniProt A0A804HW33 1-241). Description: EMSA; without MBP-MaMPK14; EMSA buffer not stated (kit per cited Fan et al.); kinase preincubation in 20 mM Tris-HCl, 20 mM MgCl2, 100 mM NaCl, 10 mM ATP, 2 mM DTT, 0.5 h at 30 C; pH not. The conditions noted are these: protein: recombinant; tags: GST (N-term, pGEX-4T-1); label: biotin; blunt.
GST-MaMYB4, sequence (A0A804HW33 entry or part of it): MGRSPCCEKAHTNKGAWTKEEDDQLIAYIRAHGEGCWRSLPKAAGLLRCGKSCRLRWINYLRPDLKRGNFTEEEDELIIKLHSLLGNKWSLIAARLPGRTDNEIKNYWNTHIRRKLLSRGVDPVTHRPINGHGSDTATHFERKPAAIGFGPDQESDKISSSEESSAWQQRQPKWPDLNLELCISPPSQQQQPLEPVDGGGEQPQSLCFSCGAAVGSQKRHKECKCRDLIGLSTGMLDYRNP

B1: MaACS1 promoter probe (dsDNA)
DNA 1: CCAAAAACAGGGTAGGTGGATGGCTTACATGCTCACCTAATAATTTATTT
DNA 2: AAATAAATTATTAGGTGAGCATGTAAGCCATCCACCTACCCTGTTTTTGG
For the molecule B1, the results for the binding result with MBP-MaMPK14 and with GST-MaMYB4 were “no binding” and “binds”, respectively.
